Reference: PMC4017264 (Molecular Cell, 2014)
Positions count from the first letter of the chain named. Numbers in names are those of the source. Where “and” joins values, the source holds several entries; their conditions need not be identical. Equal entries are not always repeated. One block for each molecule: values may come before it. No end group written: not given here. *: point of attachment. FITC = O=C1OC2(c3ccc(O)cc3Oc3cc(O)ccc32)c2ccc(NC(=S)*)cc21; Ahx = NCCCCCC(=O)O

Experiments:
[1] = tested on: HOIP (Met1-linked polyUb); experiment: HOIP autoubiquitination, purification of endogenous Met1-polyUb conjugates (M1-SUB pulldown); format: cell-based; details: U2OS/NOD2 cells, ectopic OTULIN variants, basal, identical with L18-MDP or TNF, immunoblot
Excerpt: Antibodies and affinity resin
The following antibodies and reagents were used according to the manufacturers’ instructions: anti-HA-agarose resin (A2095), anti-V5-agarose resin (A7345) and rabbit polyclonal anti-HOIP/RNF31 (SAB2102031, Sigma-Aldrich), rat monoclonal anti-HA (#11867423991, Roche Diagnostics, Burgess Hill, UK), mouse monoclonal anti-ubiquitin (IMG-5021, Imgenex, San Diego, CA), rabbit polyclonal anti-SHARPIN (#14626-1-AP, ProteinTech, Chicago, IL), rabbit polyclonal anti-RBCK1/HOIL-1 (NBP1-88301, Novus Biologicals, Littleton, CO), mouse monoclonal anti-V5 (MCA1360, AbD Serotec, Kidlington, UK), mouse monoclonal anti-$-actin (MAB1501, Chemicon, Millipore, Billerica, MA), rabbit polyclonal anti-HOIL-1, rabbit polyclonal anti-HOIP/RNF31
(Sigma), mouse monoclonal anti-p97 (Thermo Scientific). The
Fam105B/OTULIN antibody was previously described (Keusekotten et al., 2013). […]
HEK293ET, RPE1 and U2OS cells were collected, washed with PBS and lysed on ice for 30 minutes in SEC cell extraction buffer (150 mM NaCl, 50 mM Tris-HCl pH 7.4, 1 mM MgCl2, 1 mM DTT, 0.3% NP40, protease and (Roche)). […] In total 3.1 mg protein extract was analyzed on a Superdex 200 10/300 GL column (GE Life Sciences). […]

[2] = target: FITC-Ahx-labeled OTULIN PIM peptide (aa 49–67) (UniProt Q96BN8); experiment: fluorescence polarisation; serially diluted PUB domains and HOIP variants mixed with an equal volume of 100 nM FITC-Ahx-labeled peptide; one-site binding model; triplicate
[3] = target: T1, HOIP PUB domain (aa 5–180) (UniProt Q96EP0 5-180); experiment: crystal structure; HOIP 5–180 with OTULIN 49–67, 2.0 Å, space group P 6(1), two molecules in the asymmetric unit; details: both partners purified
T1 construct: HOIP, residues 5-180, PUB domain; also called HOIP 5–180; slightly truncated HOIP PUB domain construct
T1 sequence (looked up): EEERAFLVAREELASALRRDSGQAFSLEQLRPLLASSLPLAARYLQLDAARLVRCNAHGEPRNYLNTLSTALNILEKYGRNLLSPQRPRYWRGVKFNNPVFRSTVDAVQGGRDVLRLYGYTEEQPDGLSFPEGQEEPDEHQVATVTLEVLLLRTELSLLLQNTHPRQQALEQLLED

[4] = target: HOIP PUB domain (aa 1–184) Y82F (UniProt Q96EP0 1-184, Y82F); experiment: FP
[5] = target: HOIP PUB domain (aa 1–184) N85A (UniProt Q96EP0 1-184, N85A); experiment: FP
[6] = target: T2, HOIP PUB domain (aa 1–184) Y82F (UniProt Q96EP0 1-184, Y82F); experiment: fluorescence polarisation; serially diluted PUB domains and HOIP variants mixed with an equal volume of 100 nM FITC-Ahx-labeled peptide; one-site binding model; triplicate; details: both partners purified
T2 sequence (looked up): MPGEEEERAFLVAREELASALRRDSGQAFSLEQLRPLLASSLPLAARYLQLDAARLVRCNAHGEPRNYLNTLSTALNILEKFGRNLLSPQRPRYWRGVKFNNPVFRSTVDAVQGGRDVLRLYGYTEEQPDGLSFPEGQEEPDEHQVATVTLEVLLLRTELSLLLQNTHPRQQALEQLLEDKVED

[7] = target: T3, PNGase PUB domain R55A (UniProt Q96IV0 11-109, Arg55 was mutated to Ala); experiment: as above; details: both partners purified
T3 construct: PNGase PUB domain with Arg55 mutated to Ala; also called PNGase mutant; Arg55 mutated to Ala
T3 sequence (looked up): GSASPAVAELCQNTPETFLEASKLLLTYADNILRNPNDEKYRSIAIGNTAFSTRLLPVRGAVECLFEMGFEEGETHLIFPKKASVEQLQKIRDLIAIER

[8] = target: T4, HOIP PUB domain (aa 1–184) V104A (UniProt Q96EP0 1-184, V104A); experiment: as above; details: both partners purified
T4 sequence (looked up): T2 sequence (looked up) with F82Y, V104A

[9] = target: T5, HOIP PUB domain (aa 1–184) N85A (UniProt Q96EP0 1-184, N85A); experiment: as above; details: both partners purified
T5 sequence (looked up): T2 sequence (looked up) with F82Y, N85A

[10] = target: T6, HOIP PUB domain K99R (UniProt Q96EP0 1-184, K99R); experiment: as above; details: both partners purified
T6 construct: HOIP PUB domain with K99R
T6 sequence (looked up): T2 sequence (looked up) with F82Y, K99R

[11] = target: T7, HOIP PUB domain N101R (UniProt Q96EP0 1-184, N101R); experiment: as above; details: both partners purified
T7 construct: HOIP PUB domain with N101R
T7 sequence (looked up): T2 sequence (looked up) with F82Y, N101R

[12] = target: T8, HOIP extended PUB domain (aa 1–184) (UniProt Q96EP0 1-184); experiment: as above; details: both partners purified
T8 construct: 15N- or 13C,15N-labelled for NMR; Construct details are in the Supplemental Experimental Procedures; also called HOIP PUB domain
T8 sequence (looked up): T2 sequence (looked up) with F82Y

[13] = target: T9, PNGase PUB domain (aa 11–109) (UniProt Q96IV0 11-109); experiment: as above; details: both partners purified
T9 construct: PNGase (peptide:N-glycanase), PUB domain, residues 11-109
T9 sequence (looked up): T3 sequence (looked up) with A45R

[14] = target: T10, UBXD1 PUB domain (aa 150–264) (UniProt Q9BZV1 150-264); experiment: as above; details: both partners purified
T10 construct: UBXD1, PUB domain, residues 150-264; also called minimal UBXD1 PUB domain
T10 sequence (looked up): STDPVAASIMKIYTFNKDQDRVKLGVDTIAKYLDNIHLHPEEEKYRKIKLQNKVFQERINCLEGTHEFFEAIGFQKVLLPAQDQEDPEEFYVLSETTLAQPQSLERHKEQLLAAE

[15] = target: T8, HOIP extended PUB domain (aa 1–184); experiment: fluorescence polarisation; competition assay: p97 PIM peptide competes with the OTULIN PIM for the HOIP PIM pocket; details: both partners purified

binding result [3]: binds
B1: unlabeled OTULIN PIM peptide (aa 49–67) (peptide, UniProt Q96BN8 49-67, looked up)
peptide: AEHEEDMYRAADEIEKEKE
notes: OTULIN, residues 49-67; Called unlabeled for NMR; also called OTULIN 49–67

Kd [12]: 0.37 µM | Kd [7]: 5 µM
B4: fluorescently labeled OTULIN PIM peptide (aa 49–67) M55L (peptide, UniProt Q96BN8 49-67, looked up)
peptide: {FITC-Ahx}-AEHEEDLYRAADEIEKEKE
notes: OTULIN, residues 49-67, Met55 exchanged to Leu (as in p97); also called OTULIN M55L PIM peptide

The remaining lines, values behind:

Molecule: inactive OTULIN with a mutation in the PIM (Y56A): catalytically inactive OTULIN (C129A) with PIM mutation Y56A
HOIP autoubiquitination with Met1-linked polyUb (in words) [1]: did not lead to HOIP autoubiquitination

Molecule: HOIP extended PUB domain (aa 1–184) (from UniProt Q96EP0 1-184) (domain or fragment)
Kd [2]: 0.18 µM

B2: FITC-Ahx-labeled OTULIN PIM peptide (aa 49–67) (peptide, UniProt Q96BN8 49-67, looked up)
peptide: {FITC-Ahx}-AEHEEDMYRAADEIEKEKE
notes: OTULIN, residues 49-67, holds the EEDMYR motif (residues 52-57); also called OTULIN peptide; wild-type OTULIN PIM peptide
Kd [4]: 9.38 µM | Kd [5]: 1.04 µM | binding result [6]: binds | Kd [7]: 43 µM | binding result [8]: binds | binding result [9]: binds | binding result [10]: binds | Kd [11]: 0.1 µM

B3: FITC-Ahx-labeled p97 PIM peptide (aa 797–806) (peptide, UniProt P55072 797-806, looked up)
peptide: {FITC-Ahx}-TEDNDDDLYG
notes: p97 (VCP), C-terminal residues 797-806; also called p97 peptide; fluorescent p97 PIM peptide
Kd [12]: 7.6 µM and 6 µM | Kd [13]: 3 µM | Kd [14]: 12 µM | binding result [10]: binds | Kd [11]: 0.9 µM

B5: unlabeled p97 PIM peptide (peptide, UniProt P55072 797-806, looked up)
peptide: TEDNDDDLYG
notes: p97 (VCP) PIM peptide; also called p97 peptide
Ki [15]: 37 µM
